Experimental data taken from PMC4920411, “Binary Toxin Subunits of Lysinibacillus sphaericus Are Monomeric and Form Heterodimers after In Vitro Activation” (PLoS ONE, 2016).

Assays:
Conditions in all cases: both partners purified
[1] = target: T1, activated BinB (act-B), trypsin-cleaved (Lysinibacillus sphaericus); assay: AUC; sedimentation equilibrium, 20°C, 3–10 μM in monomer, 10 to 22.5 krpm, 50 mM Tris-HCl pH 9.0, 50 mM NaCl, 1 mM DTT, without detergent; global fit to an A+B heteroassociation model (SEDPHAT)
T1 chain: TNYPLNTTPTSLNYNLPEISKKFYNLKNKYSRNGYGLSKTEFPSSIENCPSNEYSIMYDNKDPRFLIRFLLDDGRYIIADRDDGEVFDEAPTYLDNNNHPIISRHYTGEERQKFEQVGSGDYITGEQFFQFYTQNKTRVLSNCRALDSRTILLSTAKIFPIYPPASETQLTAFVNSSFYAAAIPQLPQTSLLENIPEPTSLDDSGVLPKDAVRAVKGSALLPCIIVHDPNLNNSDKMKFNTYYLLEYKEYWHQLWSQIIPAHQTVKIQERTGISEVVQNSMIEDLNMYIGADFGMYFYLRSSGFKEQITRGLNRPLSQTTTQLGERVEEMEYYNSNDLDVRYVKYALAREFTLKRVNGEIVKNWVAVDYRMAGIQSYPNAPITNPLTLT

[2] = target: T1, activated BinB (act-B), trypsin-cleaved; assay: AUC; sedimentation equilibrium, 20°C, 3–10 μM in monomer, 10 to 22.5 krpm, same buffer with 35 mM C8E5 density matched with 16% D2O; global fit to an A+B heteroassociation model (SEDPHAT)
[3] = target: T1, activated BinB (act-B), trypsin-cleaved; assay: SEC; Superdex 200 HR 10/30, 50 mM Tris-HCl pH 9.0, 50 mM NaCl, 1 mM DTT; subunits alone or mixed 1:1, incubated 15 min at room temperature; typically 60 μM before and 18 μM after chromatography (total monomer); eluted band checked by SDS-PAGE and MALDI-TOF

B1: activated BinA (act-A), trypsin-cleaved (domain or fragment)
chain: IDSFIPTEGKYIRVMDFYNSEYPFCIHAPSAPNGDIMTEICSRENNQYFIFFPTDDGRVIIANRHNGSVFTGEATSVVSDIYTGSPLQFFREVKRTMATYYLAIQNPESATDVRALEPHSHELPSRLYYTNNIENNSNILISNKEQIYLTLPSLPENEQYPKTPVLSGIDDIGPNQSEKSIIGSTLIPCIMVSDFISLGERMKTTPYYYVKHTQYWQSMWSALFPPGSKETKTEKSGITDTSQISMTDGINVSIGADFGLRFGNKTFGIKGGFTYDTKTQITNTSQLLIETTYTREYTNTENFPVRYTGYVLASEFTLHRSDGTQVNTIPWVALNDNYTTIARYPHFASEPLLGNTKIITDDQN
modifications: Trypsin-activated. Cleavage sites not given; UniProt mature chain limits used (MALDI about 40.8 kDa). Strain not given; P06575 chosen over the strain variant P05516. / Trypsin-activated. Cleavage
B1 was tested. Which Ka [1] did it give?
The Ka was 1.19e+06 M⁻¹.

And the Ka [2]?
The Ka was 1.92e+06 M⁻¹.

And the “stoichiometry N” value [3]?
The value was 1.
